B1: aSFP: acidic seminal fluid protein, bovine spermadhesin; SEQ ID NO: 4 (protein, listed as Bos taurus)
chain: MKLSSVIPWALLLSTATVDSMDWLPRNTNCGGILKEESGVIATYYGPKTNCVWTIQMPPEYHVRVSIQYLQLNCNKESLEIIDGLPGSPVLGKICEGSLMDYRSSGSIMTVKYIREPEHPASFYEVLYFQDPQA
B2: PDC-109: bovine seminal plasma protein purified by ion exchange chromatography; SEQ ID NO: 1 (protein, listed as Bos taurus)
chain: MALQLGLFLIWAGVSVFLQLDPVNGDQDEGVSTEPTQDGPAELPEDEECVFPFVYRNRKHFDCTVHGSLFPWCSLDADYVGRWKYCAQRDYAKCVFPFIYGGKKYETCTKIGSMWMSWCSLSPNYDKDRAWKYC
B3: BSP-A3: bovine seminal plasma protein; SEQ ID NO: 2 (protein, listed as Bos taurus)
chain: MALRLGLFLIWAGVSMFLQLDPVNGDEQLSEDNVILPKEKKDPASGAETKDNKCVFPFIYGNKKYFDCTLHGSLFLWCSLDADYTGRWKYCTKNDYAKCVFPFIYEGKSYDTCIIIGSTFMNYWCSLSSNYDEDGVWKYC

How the values were obtained:
[1] = tested on: Bovine sperm cells; experiment: Fluorescence microscopy of pegylated seminal proteins binding to sperm; type: cell-based; conditions: pegylated/biotinylated SP protein, 37° C. for 30 min in NCM
Method: (§1) NHS-dPEG4-Biotin was resuspended in H2O. Two hundred micrograms of PDC-109, BSP-A3, BSP-30 kDa and aSFP, were mixed in molar ratios of 1:5, 1:20, 1:40 and 1:60 with NHS-dPEG4Biotin and incubated for 30 min at room temperature. The reaction was stopped by the addition of 1M Tris-HCl pH7.4 at a final concentration of 25 mM. Pegylated proteins were dialysed against PBS to remove excess PEG. Pegylation was assessed by SDS-PAGE with Coomassie Blue staining. […] Western blots with labelled streptavidin supported this conclusion.
Bovine sperm cells from liquid extended semen were percoll-purified and washed in non-capacitating media (NCM; Table 3 below) with addition of 0.1% PEG (MW 600, Serva). The cells were incubated with pegylated/biotinylated SP proteins in NCM at 37° C. for 30 min, and centrifuged once to remove the supernatant. Cell pellets were resuspended in NCM containing streptavidin-alexa fluor 488 and LIVE/DEAD fixable far red dye, and incubated at 37° C. for 1 hr. Cells were washed once in NCM, and resuspended in NCM to a final concentration close to 10^7 cells/ml. DAPI was added to cells, and 10^5 cells were placed onto Superfrost plus slide. The sperm cells were studied with a Leica DMRE microscope equipped with a Leica DC500 camera, a fluorescent ebq 100 lamp and interchangeable filter sets.

[2] = tested on: sperm cells; experiment: Flow cytometry of pegylated seminal proteins binding to sperm; type: cell-based, bovine; conditions: 1 μg/mL pegylated SP protein, 30 min at 28° C.
Method: as §1
Sperm cells were prepared by centrifugation of fresh ejaculate containing extender through a 60% Percoll™ PLUS gradient followed by one wash in NCM. The sperm cells were then incubated for 30 min at 28° C. with 1 μg/mL of each of the pegylated SP proteins. After incubation with the pegylated SP proteins, cells were washed once, streptavidin-alexa fluor 488 was added to the cells and they were incubated for a further 30 min at 37° C. Flow cytometry analysis was then conducted.

| Molecule | Fluorescent signal on sperm (streptavidin-alexa fluor 488) [1] | Binding to sperm cells (right-shift in the histogram vs streptavidin-alexa fluor 488 alone) [2] |
| --- | --- | --- |
| B1 | strong fluorescent signal in the acrosomal cap part of sperm head |  |
| B2 |  | demonstrated binding to sperm cells |
| B3 |  | demonstrated binding to sperm cells |
